Numbering of substitutions follows the chain as printed. Names and notes keep the numbering of the source. Like-named read-outs stand apart in the source and are kept apart here.
Assays:
MBP-NTK_RSK2 = assay type: binding, Human; settings: GST-fusion preys, 10–20 µM; Coomassie gel; N = 1; ORF45 = GST-ORF45(16-76)
MKP3 = test: ppERK2 dephosphorylation by MKP3, quantitative Western-blot; assay type: biochemical, human; settings: 1 μM ppERK2, 1 μM MKP3; 1 μM RSK2; 1 or 5 μM ORF45(16-76)
Source text: (§1) Phosphorimaging results are plotted on the panel at the right based on one experiment (N = 1). b In vitro kinase assay results on RSK substrate phosphorylation. […] The schematic panel on the right highlights the hierarchical phosphorylation events (one-end arrows) and the PPIs (two-end arrows) required for NTK mediated phosphorylation of RSK substrates.
Sequences of oligonucleotides used for cloning are listed in Supplementary Table 4.

[1] = system: RSK2 and ERK2-RSK2 complex; test: Size-exclusion chromatography with fluorescently labeled ORF45(16-76); assay type: binding; settings: peptide labeled with a fluorescent dye
ppERK2 → RSK2 = test: In vitro kinase assay, 10 nM ppERK2 phosphorylating 2 µM RSK2, phosphorimaging; assay type: biochemical, Human; settings: 50 µM ORF45 peptide; tested on ppERK2 → RSK2 and MKK1 → ERK2 → RSK2
Description: as §1
Radioactivity based kinase reactions were carried out in 50 mM HEPES, pH 7.5, 100 mM NaCl, 5 mM MgCl2, 0.05% IGEPAL, 5% glycerol, 2 mM DTT using recombinant expressed and purified proteins in the presence of 250 μM ATP and ∼5 μCi of [γ-^32P]ATP. Reactions were stopped with protein loading sample buffer complemented with 20 mM EDTA, boiled, and then subjected to SDS-PAGE. Gels were dried before phosphorimaging by a Typhoon Trio+ scanner (GE Healthcare).

[2] = target: double-phosphorylated ERK2 (ppERK2) (human) (UniProt P28482); test: fluorescence polarisation
Sequence of double-phosphorylated ERK2 (ppERK2) (human) (P28482 whole entry, the tested form may be a part): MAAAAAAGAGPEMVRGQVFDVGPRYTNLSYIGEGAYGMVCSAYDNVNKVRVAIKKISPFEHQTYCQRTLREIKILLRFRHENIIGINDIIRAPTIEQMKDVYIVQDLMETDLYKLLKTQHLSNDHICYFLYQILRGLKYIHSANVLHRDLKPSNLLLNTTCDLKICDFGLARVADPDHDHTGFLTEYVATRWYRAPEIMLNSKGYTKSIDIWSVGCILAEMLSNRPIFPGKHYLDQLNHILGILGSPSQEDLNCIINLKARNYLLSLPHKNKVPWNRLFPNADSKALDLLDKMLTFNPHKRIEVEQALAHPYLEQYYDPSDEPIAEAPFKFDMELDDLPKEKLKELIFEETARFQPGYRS

activated RSK2 [3] = test: In vitro kinase assay of EIF4B RxxS/T phosphorylation reporters with activated RSK2, Anti-RxxpS/pT Western-blot; settings: 10 µM GST-fusion construct, 100 nM activated RSK2; mean ± SD, N = 3
activated RSK2 [4] = assay type: biochemical, Human; settings: 10 µM GST-fusion substrate, 0.5 µM activated RSK2, no competitor
activated RSK2 [5] = test: In vitro kinase assay of RHDF1(1-289) wild type and F281A with activated RSK2, Anti-RxxpS/pT Western-blot

## ORF45(16-76)-F66A: VF-motif mutated version of GST-ORF45(16-76)
MBP-NTK_RSK2
  binding in MBP pull-down, RSK2 NTK: did not show detectable binding

## RSK2: purified human RSK2 added to the ppERK2 dephosphorylation assay
MKP3
  protection of ppERK2 from dephosphorylation by MKP3: did not protect ppERK2 from dephosphorylation

## ORF45(16-76): 61 amino acid long N-terminal ORF45 peptide, expressed as GST-fusion and cleaved; GST-fusion in Fig. 7 and 8
[1]
  binding in size-exclusion chromatography: binds to RSK2 as well as to the ERK2-RSK2 complex
ppERK2 → RSK2
  effect on RSK2 phosphorylation in vitro: blocked RSK2 phosphorylation

## unlabeled ORF45(16-40) peptide
[2]
  Kd: 800 nM

## 411-ETQERERSRTGSESSQTGTS-430 [RxxSEIF4B, EIF4B region 411-430 with S422, RSK phosphorylation probe lacking a VF-motif]
Activated RSK2 [3]
  RxxSEIF4B phosph. rate: 0.03 ± 0.01 arb. unit / min
Activated RSK2 [4]; Sample_1
  initial phosphorylation rate: 0.3562
Activated RSK2 [4]; Sample_2
  initial phosphorylation rate: 0.455
Activated RSK2 [4]; Sample_3
  initial phosphorylation rate: 0.379
Activated RSK2 [4]; mean N=3
  initial phosphorylation rate: 0.3967

B1: RHDF: human RHDF1 construct 1-289, wild type (protein, UniProt Q96CC6 1-289, looked up, fragment)
chain: MSEARRDSTSSLQRKKPPWLKLDIPSAVPLTAEEPSFLQPLRRQAFLRSVSMPAETAHISSPHHELRRPVLQRQTSITQTIRRGTADWFGVSKDSDSTQKWQRKSIRHCSQRYGKLKPQVLRELDLPSQDNVSLTSTETPPPLYVGPCQLGMQKIIDPLARGRAFRVADDTAEGLSAPHTPVTPGAASLCSFSSSRSGFHRLPRRRKRESVAKMSFRAAAALMKGRSVRDGTFRRAQRRSFTPASFLEEDTTDFPDELDTSFFAREGILHEELSTYPDEVFESPSEAAL
Activated RSK2 [5]; Sample_1
  RxxS motif phosphorylation, Normalized to RHDF_Mean: 1.075
Activated RSK2 [5]; Sample_2
  RxxS motif phosphorylation, Normalized to RHDF_Mean: 0.9889
Activated RSK2 [5]; Sample_3
  RxxS motif phosphorylation, Normalized to RHDF_Mean: 0.9363
Activated RSK2 [5]; mean N=3
  RxxS motif phosphorylation, Normalized to RHDF_Mean: 1
Activated RSK2 [4]; Sample_1
  initial phosphorylation rate: 0.1656
Activated RSK2 [4]; Sample_2
  initial phosphorylation rate: 0.1405
Activated RSK2 [4]; Sample_3
  initial phosphorylation rate: 0.1427
Activated RSK2 [4]; mean N=3
  initial phosphorylation rate: 0.1496

B2: RHDF_F281A: RHDF1_1-289 with the VF motif mutated (F281A) (protein, UniProt Q96CC6 1-289, looked up, variant F281A)
chain: B1 chain with F281A
Activated RSK2 [5]; Sample_1
  RxxS motif phosphorylation, Normalized to RHDF_Mean: 0.1221
Activated RSK2 [5]; Sample_2
  RxxS motif phosphorylation, Normalized to RHDF_Mean: 0.1251
Activated RSK2 [5]; Sample_3
  RxxS motif phosphorylation, Normalized to RHDF_Mean: 0.1185
Activated RSK2 [5]; mean N=3
  RxxS motif phosphorylation, Normalized to RHDF_Mean: 0.1219

B3: SOS1: human SOS1 construct 1101-1170 (legend also 1101-1171) (protein, UniProt Q07889 1101-1170, looked up, fragment)
chain: VCSVFDSDHSSPFHSSNDTVFIQVTLPHGPRSASVSSISLTKGTDEVPVPPPVPPRRRPESAPAESSPSK
Activated RSK2 [4]; Sample_1
  initial phosphorylation rate: 1.226
Activated RSK2 [4]; Sample_2
  initial phosphorylation rate: 1.21
Activated RSK2 [4]; Sample_3
  initial phosphorylation rate: 0.88
Activated RSK2 [4]; mean N=3
  initial phosphorylation rate: 1.105

Source: paper PMC8789800
